Assay results reported in patent US20250320278A1 (LA JOLLA INSTITUTE FOR IMMUNOLOGY, published 2025).
Read-outs that look alike come from different tables or passages of the source.

B1: NP3-A7 (antibody, V domains shown)
VH: QIQLVQSGAELVKPGASVKLSCTASGFNIKDTYIHWVRQRPEQGLEWIGRIDPANGDTKYDPKFQDKATLIADTSSNTAYLQLGSLTSEDTAVYYCARYRIYYFDYWGQGTTLTVSS
VL: DIQMTQSPASVPVTPGESVSISCRSSKSLLHSNGNTYVYWFLQRPGQSPRLLIYRMSNLASGVPDRFSGSGSGTAITLRISRVEAEDVGVYSCMQHLEYPLTFGAGTKLEIK
B2: NP3-B4 (antibody, V domains shown)
VH: EVQLVESGGGLVQPGGSVKLSCLASGFTFSDYYMSWVRQSPEKGLEWVAEIRLESDNYATHYAESVKGKFTISRDDSKSRLYLKMNSLRGEDTGIYYCAFDVYYGGAMDYWGQGTTVTVSS
VL: DIQMTQSPSIMSASPGEKVTMTCSASSSVSYMHWYQQKSSTSPKLWIYDTSELASGVPGRFSGSRSGNSYSLTISSMEAEDVATYYCFQGSGYPLTFGGGTKLELK
B3: NP3-E6 (antibody, V domains shown)
VH: EVQLQQSGAELMRPGASVKISCKATGYTFSSYWIEWVKQRPGHGLEWIGEILPGSDNTNYNEKFKGKATLTADTSSNTAYMHLSSLTSEDSAVYSCARRLFLRRYFDVWGAGTTVTVSS
VL: DIVLTQSPASLALSLGQRATISCKASQSVDYDGDSYMNWYQQKPGQPPKLLISAASNLESGIPARFGGSGSGTDFTLNIHPVEEEDAATYYCQQSNEDPFTFGGGTKLEIK
B4: NP3-F7 (antibody, V domains shown)
VH: EVQLQQSGAELVRPGSSVKISCKASGYAFSSYWMNWVKQRPGQGLEWIGQIYPGNGDTYYNGKFMGKATLTADKFSSTAYMQLSGLTSEDSAVYFCARRPLFYAMDYWGQGTSVTVSS
VL: DIVLTQSPGSLAVSLGQRATISCKASQSVDYDGDSYMNWYQQKPGQPPKLLIYAASNLESGIPVRFSGSGSGTDFTLNIHPVEEEDAATYYCQQSNEDPWTFGGGTKLELK
B5: NP3-G9 (antibody, V domains shown)
VH: EVQLQQSGAELVRPGSSVKISCKASGYAFSNYWMNWVRQRPGQGLEWIGQIYPGNDDTYYNGKFKGKVTLTADKSSTTAYIQLISLTSEDSAVYFCARRPLFYAMDYWGQGTSVTVSS
VL: DIQMTQSPSSLAVSLGQRASISCKASQSVDYDGESYMNWYQQKPGQPPKVLIYAASNLESGIPARFSGSGAGTDFTLSIHPVEEEDAATYYCQQSYEDPWTFGGGTKLELK
B6: NP3-G12 (antibody, V domains shown)
VH: EAQLQQSGAEPMKPGASVKISCKTTGYTFTSDWIEWVQQRPGHGLEWIGEILPGSGNTNYNENFKGKATLTADTSSNTAYMHLSSLTSEDSAVYYCARRLFLRRYFDVWGAGTTVTVSS
VL: DIVMTQSPASLAVSLGQRATISCKASQSVDYDGDSYMNWYQQKPGQPPKLLIYAASNLESGIPARFGGGGSGTDFTLNIHPVEEEDAATYYCQQSNEDPFTFGGGTKLELK
B7: NP3-B9 (antibody, V domains shown)
VH: EVQLQQSGPELKKPGETVKISCKTSGYTFTNCGMHWVKQAPGKGLKWMGWINTYTGEPTYADDFKGRFAFSLETSVNTAYLQINNLKSEDTASYFCARRDDVYYVAGFDYWGQGTTLTVSS
VL: DIQMTQSPASLSVSVGETVTITCRASENIYSNLAWYQQKQGKSPQLLVNGATDLADGVPSRFSGSGSGTQYSLKINSLQSEDFGSYYCQLFWGTPWTFGGGTKLEIK
B8: NP3-C5 (antibody, V domains shown)
VH: QIQLVQSGPELKTPGETVKISCKASGYTFTNCGMHWVKQAPGKGLKWMGWINTYTGEPIYADDFKRRFAFSLETSASTAYLQINNLNNEDTASYFCARRDDVYYVAGFDYWGQGTTVTVFS
VL: DIQMTQSPASLSVSVGETVTITCRASENIYSNLAWYQQKQGKSPQLLVYGATDLADGVPSRFSGSGSGTQYSLKINSLQSEDFGSYYCQHFWGTPWTFGGGTKLELK
B9: NP3-D1 (antibody, V domains shown)
VH: DVQLQESGPELAKPGASVKVSCKASGYTFTSYNIYWVKQSHGKSLEWIGYIDPYNGGTSYNQKFKGKATLTVDKSSSTAYMHLNSLTSEDSAVYYCALPWDYWGQGTSVTVSS
VL: not shown
B10: NP3-E11 (antibody, V domains shown)
VH: EVQLQQSGPELVRPGVSVKISCKGSGYTFTDYVMHWVKQSHAKSLEWIGVISTYSGNTNYNQKFKGKATMTVDKSSNTVYMELARLTSEDSAIYYCTRGTGDFDYWGQGTTLTVSS
VL: DIVMTQSHKFMSTSVGDRVSITCKASQDVGSAVAWYQQKPGQSPKLLIYWTSTRHTGVPDHFTGSGSGTDFTLTINNVQSEDLADYFCHQYSSYPYTFGGGTKLEIK
B11: NP3-E4 (antibody, V domains shown)
VH: EVQLVESGPGLVAPSQSLSITCTVSGFSLTSYGVSWVRQPPGKGLEWLGVIWGDGSTNYHSALISRLSINKDNSKSQVFLRLNSLQTDDTATYYCAKEDDGYLFYFDYWGQGTTLTVSS
VL: DIKMTQSPSSLSASLGDRVTISCSASQDISDYLNWYQQKPDGTVKLLIYYTSSLHSGVPSRFSGSGSGTDYSLTISNLEPEDIATYYCQQYSKLPYTFGGGTKLEIK
B12: NP3-F4 (antibody, V domains shown)
VH: EVQLVESGPELKKPGETVKIPCKTSGYTFTNYGMNWVKQAPGKGLKWMGWINTNTGEPTYAEDFKGRFAFSLETSASTAYLQISNLKNEDTATFFCARGSIYDGYYEGLYYWGQGTTLTVSS
VL: DIKMTQSPSSLSVSVGETVTITCRASENIYSNLAWYQQKQGKSPQLLVSAATNLADNVPSRFSGSGSGTQYSLKINSLQSEDFGSYYCQHFWGFPRTFGGGTKLEIK
B13: NP3-F10 (antibody, V domains shown)
VH: EVQLQQSGAELVEPGAPVKLSCKAFGYTFTSYWMNWVKQRPGRGLEWIGRIDPSDSETHYNQNFKDKAALTVDRSSSTAYIHLSSLTSEDSAVYYCAREVTTATKGVFSWLAYWGQGTLVTVSA
VL: DIQMTQTTSSLSASLGDRVTISCSASQDISDYLNWYQQKPDGTIKLLIYYTSSLHSGAPSRFSGSGSGTDYSLTISNLEPEDIATYYCQQYSKLPWTFGGGTKLELK
B14: NP3-H9 (antibody, V domains shown)
VH: QIQLVQSGPELKKPGETVKISCKASGYTFTDYPIHWVKQAPGKGLKWMGWINAETGEPTYADDFKGRFVVSLETSASTAYLQINNLKNEDTATFFCARHYRYDEAWFVYWGQGTLVTVSA
VL: DVQITQSPSSLSVSVGETVTITCRASENIYSNLAWYQQKQGKSPQLLVYAATDLADGVPSRFSGSGSGTHYSLKINSLQSEDFGSFYCQHFWGTPWTFGGGTKLEIK
B15: NP3-H12 (antibody, V domains shown)
VH: QIQLVQSGPELKKPGETVKISCKASGYMFTNYGMNWVKQAPGKGLKWMGWINTYTGEPTYADDFKGRFAFSLDISGSTAYLQINNLKNEDMATYFCARTREIWGNVDFPYWGQGTLVTVSA
VL: DILMTQAAPSLSVSVGETVTITCRASENIYSDLAWYQHKEGKSPQLLVYAATDLADGVPSRFSGSGSGTQYSLKINSLQSEDFGNYYCQHFWGTPWTFGGGTKLEIK

Columns and labels:
[1] = biological target: T1, SARS-CoV-2 N protein, full-length (SARS-CoV-2, UniProt P0DTC9 1-419); test: Octet (BLI) kinetics
T1 construct: mature; also called SARS-CoV-2 nucleoprotein

[2] = biological target: T2, SARS-CoV-2 N protein RNA-binding domain (SARS-CoV-2, UniProt P0DTC9 44-180); test: Octet, KD (nM) heat map
[3] = biological target: T3, SARS-CoV-2 N protein oligomerization domain (SARS-CoV-2, UniProt P0DTC9 247-364); test: Octet, KD (nM) heat map
T3 construct: also called N olig. domain; OD

[4] = biological target: T1, SARS-CoV-2 N protein, full-length; test: Octet (BLI) kinetics; remark: listed apart in the source
[5] = biological target: T2, SARS-CoV-2 N protein RNA-binding domain; test: Octet (BLI) kinetics

Binder | Kd [1] [nM] | binding result [2] | binding result [3] | Kd [4] [nM] | Kd [5] [nM]
B1 | 2.75 | no binding | no binding |  | 
B2 |  | no binding |  |  | 
B3 | 0.48 | no binding |  |  | 
B4 |  | no binding |  |  | 
B5 |  | no binding |  |  | 
B6 |  | no binding |  |  | 
B7 |  |  | no binding | 0.38 | 0.47
B8 |  |  | no binding | 0.73 | 0.62
B9 |  |  | no binding | 5.63 | 0.0015
B10 |  |  | no binding | 1.23 | 0.57
B11 |  |  | no binding | 0.71 | 3.46
B12 |  |  | no binding | 2.84 | 5.57
B13 |  |  | no binding | 2.53 | 5.6
B14 |  |  | no binding | 5.2 | 3.16
B15 |  |  | no binding | 0.72 | 1.89
